Key:
[1] = biological target: sTFR with 5-hydroxytryptophan substituted for Trp (UniProt P02786)
[2] = biological target: soluble portion of the transferrin receptor expressed as a recombinant entity (UniProt P02786)
Sequence of soluble portion of the transferrin receptor expressed as a recombinant entity (P02786 122-760): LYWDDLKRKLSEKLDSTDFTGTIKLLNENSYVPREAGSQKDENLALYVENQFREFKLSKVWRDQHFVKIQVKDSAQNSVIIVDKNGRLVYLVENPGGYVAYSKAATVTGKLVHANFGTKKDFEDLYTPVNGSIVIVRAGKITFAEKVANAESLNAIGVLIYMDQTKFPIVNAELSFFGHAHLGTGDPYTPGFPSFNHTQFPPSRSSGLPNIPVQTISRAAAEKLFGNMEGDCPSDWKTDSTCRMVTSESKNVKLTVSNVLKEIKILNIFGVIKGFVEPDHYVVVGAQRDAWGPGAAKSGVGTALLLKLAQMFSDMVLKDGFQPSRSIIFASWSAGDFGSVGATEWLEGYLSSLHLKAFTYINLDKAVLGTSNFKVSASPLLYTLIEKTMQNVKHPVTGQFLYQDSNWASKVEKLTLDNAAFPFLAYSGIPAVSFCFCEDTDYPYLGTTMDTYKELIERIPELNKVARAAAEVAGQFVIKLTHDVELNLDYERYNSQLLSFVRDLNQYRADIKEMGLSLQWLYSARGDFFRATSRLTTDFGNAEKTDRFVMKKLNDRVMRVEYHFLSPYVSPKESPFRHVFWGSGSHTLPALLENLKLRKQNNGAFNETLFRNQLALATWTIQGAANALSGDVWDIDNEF

Question: How did the k (obsC1) of iron release from the complex at pH 5.6, excitation 280 nm [1] turn out when “FeC hTF with 5-hydroxytryptophan substituted for Trp (from UniProt P02787 20-698) (ligand)” was run?
Answer: 18.1 min^-1

Question: What about the k (obsC1) of iron release from the complex at pH 5.6, excitation 315 nm [1] of the same substance?
Answer: 22.4 min^-1

Question: What about the k (obsC2) of iron release from the complex at pH 5.6, excitation 280 nm [1] of the same substance?
Answer: 4 min^-1

Question: What about the k (obsC2) of iron release from the complex at pH 5.6, excitation 315 nm [1] of the same substance?
Answer: 3.4 min^-1

Question: What about the k (obsC1) of iron release from the complex at pH 5.6, excitation 280 nm [2] of the same substance?
Answer: 25.8 min^-1

Question: And the k (obsC1) of iron release from the complex at pH 5.6, excitation 315 nm [2]?
Answer: 14.1 min^-1

Question: What about the k (obsC2) of iron release from the complex at pH 5.6, excitation 280 nm [2] of the same substance?
Answer: 8.3 min^-1

Question: And the k (obsC2) of iron release from the complex at pH 5.6, excitation 315 nm [2]?
Answer: 2.8 min^-1
